Data on 7 molecules can be found in paper PMC10397247.

One experiment addresses T1, O8-bA.
T1 chain: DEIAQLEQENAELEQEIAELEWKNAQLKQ
As to the kind of experiment: two-hybrid library CCNG1.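 Further: natural log of median RNA to DNA barcode read ratio; higher means stronger binding.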

A further experiment addresses T2, O4-bA.
T2 chain: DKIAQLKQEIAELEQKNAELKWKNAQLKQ
As to the kind of experiment: two-hybrid library CCNG1.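 Further: natural log of median RNA to DNA barcode read ratio; higher means stronger binding.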

The target in the next experiment is T3, O15-bA.
T3 chain: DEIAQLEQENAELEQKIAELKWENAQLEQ
As to the kind of experiment: two-hybrid library CCNG1.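 Further: natural log of median RNA to DNA barcode read ratio; higher means stronger binding.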

For another experiment, the target named is T4, O2-bA.
T4 chain: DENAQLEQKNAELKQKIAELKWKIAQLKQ
Briefly: two-hybrid library CCNG1.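 Further: natural log of median RNA to DNA barcode read ratio; higher means stronger binding.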

The target of another experiment is T5, O3-bA.
T5 chain: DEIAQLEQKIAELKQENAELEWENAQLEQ
Briefly: two-hybrid library CCNG1.

In the next experiment the target is T6, O5-bA.
T6 chain: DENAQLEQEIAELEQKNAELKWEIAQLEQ
As to the kind of experiment: two-hybrid library CCNG1.

The next experiment has as its target T7, O9-bA.
T7 chain: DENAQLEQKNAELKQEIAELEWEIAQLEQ
Briefly: two-hybrid library CCNG1.

The next experiment has as its target T8, O6-bA.
T8 chain: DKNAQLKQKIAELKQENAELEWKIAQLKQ
Briefly: two-hybrid library CCNG1.

Another experiment deals with T9, O7-bA.
T9 chain: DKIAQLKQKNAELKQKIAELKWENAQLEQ
As to the kind of experiment: two-hybrid library CCNG1.

A further experiment concerns the target T10, O16-bA.
T10 chain: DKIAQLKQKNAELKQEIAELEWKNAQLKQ
As to the kind of experiment: two-hybrid library CCNG1.

The target in another experiment is T11, 4H510-AA.
T11 chain: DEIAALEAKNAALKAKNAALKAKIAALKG
As to the kind of experiment: two-hybrid library CCmax. The conditions noted are these: mean of both orientations.

A further experiment addresses T12, 4H87-AA.
T12 chain: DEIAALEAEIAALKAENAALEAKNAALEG
Briefly: two-hybrid library CCmax. The conditions noted are these: mean of both orientations.

A further experiment addresses T13, 4H390-AA.
T13 chain: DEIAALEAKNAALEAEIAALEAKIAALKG
As to the kind of experiment: two-hybrid library CCmax. The conditions noted are these: mean of both orientations.

In another experiment the target is T14, 4H3134-AA.
T14 chain: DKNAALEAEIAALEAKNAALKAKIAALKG
As to the kind of experiment: two-hybrid library CCmax. The conditions noted are these: mean of both orientations.

The target of the next experiment is T15, 4H775-AA.
T15 chain: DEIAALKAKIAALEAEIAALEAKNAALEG
As to the kind of experiment: two-hybrid library CCmax. The conditions noted are these: mean of both orientations.

A further experiment has as its target T16, 4H278-AA.
T16 chain: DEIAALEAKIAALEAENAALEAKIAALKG
Briefly: two-hybrid library CCmax. The conditions noted are these: mean of both orientations.

The target of the next experiment is T17, 4H2985-AA.
T17 chain: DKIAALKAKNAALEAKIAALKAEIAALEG
Briefly: two-hybrid library CCmax. The conditions noted are these: mean of both orientations.

The target in the next experiment is T18, 4H816-AA.
T18 chain: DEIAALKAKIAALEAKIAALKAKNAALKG
Briefly: two-hybrid library CCmax. The conditions noted are these: mean of both orientations.

A further experiment has as its target T19, 4H2646-AA.
T19 chain: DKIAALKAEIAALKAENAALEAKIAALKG
As to the kind of experiment: two-hybrid library CCmax. The conditions noted are these: mean of both orientations.

The target in the next experiment is T20, 4H2758-AA.
T20 chain: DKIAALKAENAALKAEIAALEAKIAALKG
Briefly: two-hybrid library CCmax.

The target of a further experiment is T21, 4H3940-AA.
T21 chain: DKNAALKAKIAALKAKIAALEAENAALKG
As to the kind of experiment: two-hybrid library CCmax. The conditions noted are these: mean of both orientations.

Another experiment has as its target T22, 4H2512-AA.
T22 chain: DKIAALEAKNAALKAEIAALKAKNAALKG
Briefly: two-hybrid library CCmax.

The next experiment addresses T23, 4H2873-AA.
T23 chain: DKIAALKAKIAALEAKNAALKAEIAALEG
Briefly: two-hybrid library CCmax. The conditions noted are these: mean of both orientations.

The next experiment has as its target T24, 4H3409-AA.
T24 chain: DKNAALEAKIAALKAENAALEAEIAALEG
As to the kind of experiment: two-hybrid library CCmax. The conditions noted are these: mean of both orientations.

The target of the next experiment is T25, 4H3625-AA.
T25 chain: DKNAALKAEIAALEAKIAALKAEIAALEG
Briefly: two-hybrid library CCmax. The conditions noted are these: mean of both orientations.

Another experiment has as its target T26, 4H2687-AA.
T26 chain: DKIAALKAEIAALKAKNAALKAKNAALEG
Briefly: two-hybrid library CCmax. The conditions noted are these: mean of both orientations.

Another experiment concerns the target T27, 4H2705-AA.
T27 chain: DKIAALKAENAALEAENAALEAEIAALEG
Briefly: two-hybrid library CCmax.

The target in the next experiment is T28, 4H967-bA.
T28 chain: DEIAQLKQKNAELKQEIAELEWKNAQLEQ
As to the kind of experiment: two-hybrid library CCNG1.

For the next experiment, the target named is T29, 4H3112-bA.
T29 chain: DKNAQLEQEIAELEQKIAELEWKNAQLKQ
Briefly: two-hybrid library CCNG1.

The target in a further experiment is T30, 4H953-bA.
T30 chain: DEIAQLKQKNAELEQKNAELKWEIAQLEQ
Briefly: two-hybrid library CCNG1.

For another experiment, the target named is T31, 4H2702-bA.
T31 chain: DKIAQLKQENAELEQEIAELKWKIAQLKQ
Briefly: two-hybrid library CCNG1.

For the next experiment, the target named is T32, 4H4073-bA.
T32 chain: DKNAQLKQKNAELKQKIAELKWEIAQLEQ
Briefly: two-hybrid library CCNG1.

The next experiment addresses T33, 4H918-bA.
T33 chain: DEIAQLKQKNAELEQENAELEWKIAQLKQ
As to the kind of experiment: two-hybrid library CCNG1.

Another experiment concerns the target T34, 4H457-bA.
T34 chain: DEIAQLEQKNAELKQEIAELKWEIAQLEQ
Briefly: two-hybrid library CCNG1.

The target of a further experiment is T35, 4H3427-bA.
T35 chain: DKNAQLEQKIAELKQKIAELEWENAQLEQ
As to the kind of experiment: two-hybrid library CCNG1.

The target in the next experiment is T36, 4H754-bA.
T36 chain: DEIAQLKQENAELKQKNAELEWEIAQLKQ
Briefly: two-hybrid library CCNG1.

The next experiment concerns the target T37, 4H575-bA.
T37 chain: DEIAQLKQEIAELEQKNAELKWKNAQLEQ
Briefly: two-hybrid library CCNG1.

The next experiment concerns the target T38, 4H683-bA.
T38 chain: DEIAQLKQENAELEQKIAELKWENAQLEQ
As to the kind of experiment: two-hybrid library CCNG1.

A further experiment has as its target T39, 4H855-bA.
T39 chain: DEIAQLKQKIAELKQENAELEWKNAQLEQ
As to the kind of experiment: two-hybrid library CCNG1.

The next experiment deals with T40, 4H346-bA.
T40 chain: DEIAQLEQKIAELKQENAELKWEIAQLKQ
As to the kind of experiment: two-hybrid library CCNG1.

The target of the next experiment is T41, 4H3010-bA.
T41 chain: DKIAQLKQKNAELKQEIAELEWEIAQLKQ
Briefly: two-hybrid library CCNG1.

The target of the next experiment is T42, 4H3926-bA.
T42 chain: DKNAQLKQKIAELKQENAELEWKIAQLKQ
As to the kind of experiment: two-hybrid library CCNG1.

For the next experiment, the target named is T43, 4H797-bA.
T43 chain: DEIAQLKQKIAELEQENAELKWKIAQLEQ
Briefly: two-hybrid library CCNG1.

The next experiment concerns the target T44, 4H780-bA.
T44 chain: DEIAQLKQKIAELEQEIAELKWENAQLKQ
Briefly: two-hybrid library CCNG1.

A further experiment concerns the target T45, 4H968-bA.
T45 chain: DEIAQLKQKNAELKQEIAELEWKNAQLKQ
As to the kind of experiment: two-hybrid library CCNG1.

For the next experiment, the target named is T46, O5.
T46 chain: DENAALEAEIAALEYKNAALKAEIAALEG
Briefly: two-hybrid library CCNG1.

The next experiment concerns the target T47, O9.
T47 chain: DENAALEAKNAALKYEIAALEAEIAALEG
Briefly: two-hybrid library CCNG1.

The next experiment concerns the target T48, O2.
T48 chain: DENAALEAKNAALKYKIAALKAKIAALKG
Briefly: two-hybrid library CCNG1.

A further experiment deals with T49, O8.
T49 chain: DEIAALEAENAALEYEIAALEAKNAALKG
As to the kind of experiment: two-hybrid library CCNG1.

A further experiment has as its target T50, O3.
T50 chain: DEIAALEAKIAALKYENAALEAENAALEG
Briefly: two-hybrid library CCNG1.

The target in another experiment is T51, O7.
T51 chain: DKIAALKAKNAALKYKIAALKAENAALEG
Briefly: two-hybrid library CCNG1.

A further experiment deals with T52, O4.
T52 chain: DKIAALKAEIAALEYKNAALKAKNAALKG
As to the kind of experiment: two-hybrid library CCNG1.

The next experiment deals with T53, O6.
T53 chain: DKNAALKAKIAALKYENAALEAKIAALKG
Briefly: two-hybrid library CCNG1.

DKNAQLKQKIAELKQKNAELKWEIAQLEQ [O13-bA]: the interaction score is 0.83 with O8-bA; -1.31 in the experiment with O4-bA; 0.435 in the experiment with O15-bA; -1.17 with O2-bA; -1.05 in the experiment with O3-bA; 0.182 with O5-bA. Besides, the interaction score was -0.882 with O9-bA, 1.39 in the experiment with O6-bA, -1.07 in the experiment with O7-bA and -1.53 with O16-bA.
On to DKIAALEAKNAALKAEIAALKAKNAALKG [4H2512-AA], for which the interaction score with 4H510-AA was -1.85; with 4H87-AA, -0.485; in the experiment with 4H390-AA, 0.0427; with 4H3134-AA, -0.978; with 4H775-AA, -1.11; in the experiment with 4H278-AA, 2.22. Also, the interaction score in the experiment with 4H2985-AA was 0.303; with 4H816-AA it was -1.79; with 4H2646-AA, -1.05; in the experiment with 4H2758-AA it was -0.837; with 4H3940-AA, -1.72; in the experiment with 4H2512-AA, 0.206. For the same molecule, the interaction score is -1.36 with 4H2873-AA; 1.21 with 4H3409-AA; -1.5 with 4H3625-AA; -1.95 in the experiment with 4H2687-AA; -0.766 in the experiment with 4H2705-AA.
Turning to DEIAQLKQKNAELKQEIAELEWKNAQLEQ [4H967-bA], the interaction score with 4H967-bA was -0.153; in the experiment with O15-bA, 1.66.
For DEIAQLEQENAELEQKIAELKWENAQLEQ [O15-bA], the interaction score is -0.714 with O8-bA; -0.5 in the experiment with O4-bA; -1.57 with O15-bA; -0.458 in the experiment with O2-bA; -1.21 with O3-bA; -0.66 with O5-bA. In addition, the interaction score is -0.0414 with O9-bA, -0.551 with O6-bA, 1.63 with O7-bA and 2.52 with O16-bA.
For the molecule DKIAQLKQENAELEQEIAELKWKIAQLKQ [4H2702-bA], the interaction score with 4H3112-bA was 0.438; with 4H953-bA it was 1.82; with 4H2702-bA, 1.87; with 4H4073-bA, 2.39; with O4-bA it was -0.822; with O15-bA, 0.113. Also, the interaction score was -0.134 in the experiment with 4H918-bA; 1.03 with 4H457-bA; 0.956 in the experiment with 4H3427-bA; -1.37 with 4H754-bA; -1.27 in the experiment with 4H575-bA; -1.86 in the experiment with 4H683-bA. For the same molecule, the interaction score was -1.38 in the experiment with 4H855-bA; 0.224 with 4H346-bA; 2.07 in the experiment with 4H3010-bA; 1.22 in the experiment with 4H3926-bA; -1.02 in the experiment with 4H797-bA; -1.04 with 4H780-bA. The molecule further showed an interaction score with 4H968-bA of 2.68.
With DENAQLEQEIAELEQENAELEWKIAQLKQ [O14-bA], the interaction score in the experiment with O8-bA was -0.111; with O4-bA, -0.146; in the experiment with O15-bA, -0.126; with O2-bA, 0.492; with O3-bA, -0.879; with O5-bA it was 1.69. The interaction score with O9-bA was -0.575; with O6-bA it was 2.5; in the experiment with O7-bA it was 2.14; in the experiment with O16-bA, 2.36.
Turning to DENAALEAKNAALKYKIAALKAKIAALKG [O2], the interaction score with O5 is -1.97; in the experiment with O9 it was 0.313; in the experiment with O2, -2.16; in the experiment with O8 it was -0.949; in the experiment with O3, -1.84; with O7, -2.4. The interaction score with O4 is -1.83; in the experiment with O6 it was -2.66.
